According to patent US20210388087A1 (Chugai, published 2021):

molecular target: T1, Human CD137 ECD (human); assay: Biacore SPR, vs parent H183/L072
T1 construct: entry includes C-terminal His-tag and biotin acceptor peptide; also called human CD137 extracellular domain; 4-1BB
T1 sequence (chain, as listed by the source limits assumed): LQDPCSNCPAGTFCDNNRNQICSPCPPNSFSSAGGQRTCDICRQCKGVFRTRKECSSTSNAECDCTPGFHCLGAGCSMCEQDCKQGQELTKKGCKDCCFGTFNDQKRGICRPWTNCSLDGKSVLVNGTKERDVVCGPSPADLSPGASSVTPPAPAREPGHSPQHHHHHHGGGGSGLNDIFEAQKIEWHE

| Binder | fold change of affinity |
| --- | --- |
| H183/L072 VL S26I (antibody, name in Kabat numbering, V domains shown, Dual-Ig) VH: QVQLVESGGGLVQPGRSLRLSCAASGFTFSNAWMHWVRQAPGKGLEWVAQIKDKGNAYAAYYAPSVKGRFTISRDDSKNSIYLQMNSLKTEDTAVYYCHYVHYASASTVLPAFGVDAWGQGTTVTVSS VL: DIVMTQSPLSLPVTPGEPASISCQAIQELVHMNRNTYLHWYQQKPGQAPRLLIYKVSNRFPGVPDRFSGSGSGTDFTLKISRVEAEDVGVYYCAQGTSVPFTFGQGTKLEIK | 0.2 fold |
| H183/L072 VL S26Q (antibody, name in Kabat numbering, V domains shown, Dual-Ig) VH: QVQLVESGGGLVQPGRSLRLSCAASGFTFSNAWMHWVRQAPGKGLEWVAQIKDKGNAYAAYYAPSVKGRFTISRDDSKNSIYLQMNSLKTEDTAVYYCHYVHYASASTVLPAFGVDAWGQGTTVTVSS VL: DIVMTQSPLSLPVTPGEPASISCQAQQELVHMNRNTYLHWYQQKPGQAPRLLIYKVSNRFPGVPDRFSGSGSGTDFTLKISRVEAEDVGVYYCAQGTSVPFTFGQGTKLEIK | 0.7 fold |
| H183/L072 VL S26N (antibody, name in Kabat numbering, V domains shown, Dual-Ig) VH: QVQLVESGGGLVQPGRSLRLSCAASGFTFSNAWMHWVRQAPGKGLEWVAQIKDKGNAYAAYYAPSVKGRFTISRDDSKNSIYLQMNSLKTEDTAVYYCHYVHYASASTVLPAFGVDAWGQGTTVTVSS VL: DIVMTQSPLSLPVTPGEPASISCQANQELVHMNRNTYLHWYQQKPGQAPRLLIYKVSNRFPGVPDRFSGSGSGTDFTLKISRVEAEDVGVYYCAQGTSVPFTFGQGTKLEIK | 0.7 fold |
| H183/L072 VL S26M (antibody, name in Kabat numbering, V domains shown, Dual-Ig) VH: QVQLVESGGGLVQPGRSLRLSCAASGFTFSNAWMHWVRQAPGKGLEWVAQIKDKGNAYAAYYAPSVKGRFTISRDDSKNSIYLQMNSLKTEDTAVYYCHYVHYASASTVLPAFGVDAWGQGTTVTVSS VL: DIVMTQSPLSLPVTPGEPASISCQAMQELVHMNRNTYLHWYQQKPGQAPRLLIYKVSNRFPGVPDRFSGSGSGTDFTLKISRVEAEDVGVYYCAQGTSVPFTFGQGTKLEIK | 0.6 fold |
| H183/L072 VL S26L (antibody, name in Kabat numbering, V domains shown, Dual-Ig) VH: QVQLVESGGGLVQPGRSLRLSCAASGFTFSNAWMHWVRQAPGKGLEWVAQIKDKGNAYAAYYAPSVKGRFTISRDDSKNSIYLQMNSLKTEDTAVYYCHYVHYASASTVLPAFGVDAWGQGTTVTVSS VL: DIVMTQSPLSLPVTPGEPASISCQALQELVHMNRNTYLHWYQQKPGQAPRLLIYKVSNRFPGVPDRFSGSGSGTDFTLKISRVEAEDVGVYYCAQGTSVPFTFGQGTKLEIK | 0.3 fold |
| H183/L072 VL S52A (antibody, name in Kabat numbering, V domains shown, Dual-Ig) VH: QVQLVESGGGLVQPGRSLRLSCAASGFTFSNAWMHWVRQAPGKGLEWVAQIKDKGNAYAAYYAPSVKGRFTISRDDSKNSIYLQMNSLKTEDTAVYYCHYVHYASASTVLPAFGVDAWGQGTTVTVSS VL: DIVMTQSPLSLPVTPGEPASISCQASQELVHMNRNTYLHWYQQKPGQAPRLLIYKVANRFPGVPDRFSGSGSGTDFTLKISRVEAEDVGVYYCAQGTSVPFTFGQGTKLEIK | 1 fold |
| H183/L072 VL S26K (antibody, name in Kabat numbering, V domains shown, Dual-Ig) VH: QVQLVESGGGLVQPGRSLRLSCAASGFTFSNAWMHWVRQAPGKGLEWVAQIKDKGNAYAAYYAPSVKGRFTISRDDSKNSIYLQMNSLKTEDTAVYYCHYVHYASASTVLPAFGVDAWGQGTTVTVSS VL: DIVMTQSPLSLPVTPGEPASISCQAKQELVHMNRNTYLHWYQQKPGQAPRLLIYKVSNRFPGVPDRFSGSGSGTDFTLKISRVEAEDVGVYYCAQGTSVPFTFGQGTKLEIK | 0.5 fold |
| H183/L072 VL S26P (antibody, name in Kabat numbering, V domains shown, Dual-Ig) VH: QVQLVESGGGLVQPGRSLRLSCAASGFTFSNAWMHWVRQAPGKGLEWVAQIKDKGNAYAAYYAPSVKGRFTISRDDSKNSIYLQMNSLKTEDTAVYYCHYVHYASASTVLPAFGVDAWGQGTTVTVSS VL: DIVMTQSPLSLPVTPGEPASISCQAPQELVHMNRNTYLHWYQQKPGQAPRLLIYKVSNRFPGVPDRFSGSGSGTDFTLKISRVEAEDVGVYYCAQGTSVPFTFGQGTKLEIK | 0.2 fold |
| H183/L072 VL S26Y (antibody, name in Kabat numbering, V domains shown, Dual-Ig) VH: QVQLVESGGGLVQPGRSLRLSCAASGFTFSNAWMHWVRQAPGKGLEWVAQIKDKGNAYAAYYAPSVKGRFTISRDDSKNSIYLQMNSLKTEDTAVYYCHYVHYASASTVLPAFGVDAWGQGTTVTVSS VL: DIVMTQSPLSLPVTPGEPASISCQAYQELVHMNRNTYLHWYQQKPGQAPRLLIYKVSNRFPGVPDRFSGSGSGTDFTLKISRVEAEDVGVYYCAQGTSVPFTFGQGTKLEIK | 0.2 fold |
| H183/L072 VL S26T (antibody, name in Kabat numbering, V domains shown, Dual-Ig) VH: QVQLVESGGGLVQPGRSLRLSCAASGFTFSNAWMHWVRQAPGKGLEWVAQIKDKGNAYAAYYAPSVKGRFTISRDDSKNSIYLQMNSLKTEDTAVYYCHYVHYASASTVLPAFGVDAWGQGTTVTVSS VL: DIVMTQSPLSLPVTPGEPASISCQATQELVHMNRNTYLHWYQQKPGQAPRLLIYKVSNRFPGVPDRFSGSGSGTDFTLKISRVEAEDVGVYYCAQGTSVPFTFGQGTKLEIK | 1 fold |
| H183/L072 VL S26R (antibody, name in Kabat numbering, V domains shown, Dual-Ig) VH: QVQLVESGGGLVQPGRSLRLSCAASGFTFSNAWMHWVRQAPGKGLEWVAQIKDKGNAYAAYYAPSVKGRFTISRDDSKNSIYLQMNSLKTEDTAVYYCHYVHYASASTVLPAFGVDAWGQGTTVTVSS VL: DIVMTQSPLSLPVTPGEPASISCQARQELVHMNRNTYLHWYQQKPGQAPRLLIYKVSNRFPGVPDRFSGSGSGTDFTLKISRVEAEDVGVYYCAQGTSVPFTFGQGTKLEIK | 0.3 fold |
| H183/L072 VL S26V (antibody, name in Kabat numbering, V domains shown, Dual-Ig) VH: QVQLVESGGGLVQPGRSLRLSCAASGFTFSNAWMHWVRQAPGKGLEWVAQIKDKGNAYAAYYAPSVKGRFTISRDDSKNSIYLQMNSLKTEDTAVYYCHYVHYASASTVLPAFGVDAWGQGTTVTVSS VL: DIVMTQSPLSLPVTPGEPASISCQAVQELVHMNRNTYLHWYQQKPGQAPRLLIYKVSNRFPGVPDRFSGSGSGTDFTLKISRVEAEDVGVYYCAQGTSVPFTFGQGTKLEIK | 0.3 fold |
| H183/L072 VL S52D (antibody, name in Kabat numbering, V domains shown, Dual-Ig) VH: QVQLVESGGGLVQPGRSLRLSCAASGFTFSNAWMHWVRQAPGKGLEWVAQIKDKGNAYAAYYAPSVKGRFTISRDDSKNSIYLQMNSLKTEDTAVYYCHYVHYASASTVLPAFGVDAWGQGTTVTVSS VL: DIVMTQSPLSLPVTPGEPASISCQASQELVHMNRNTYLHWYQQKPGQAPRLLIYKVDNRFPGVPDRFSGSGSGTDFTLKISRVEAEDVGVYYCAQGTSVPFTFGQGTKLEIK | 0.8 fold |
| H183/L072 VL S26W (antibody, name in Kabat numbering, V domains shown, Dual-Ig) VH: QVQLVESGGGLVQPGRSLRLSCAASGFTFSNAWMHWVRQAPGKGLEWVAQIKDKGNAYAAYYAPSVKGRFTISRDDSKNSIYLQMNSLKTEDTAVYYCHYVHYASASTVLPAFGVDAWGQGTTVTVSS VL: DIVMTQSPLSLPVTPGEPASISCQAWQELVHMNRNTYLHWYQQKPGQAPRLLIYKVSNRFPGVPDRFSGSGSGTDFTLKISRVEAEDVGVYYCAQGTSVPFTFGQGTKLEIK | 0.1 fold |
